{"source": "paper PMC10633859", "binders": {"B1": {"name": "fluorescent dsDNA 47 bp (dsDNA)", "DNA 1": "CAGATCTACCGAATCAGTCCGACGACGCATCTGCACTACGAGGATAC", "DNA 2": "GTATCCTCGTAGTGCAGATGCGTCGTCGGACTGATTCGGTAGATCTG"}}, "key": {"[1]": {"molecular_target": "SIRT6 full length (SIRT6FL) (human, UniProt Q8N6T7 1-355)", "sequence (Q8N6T7 whole entry)": "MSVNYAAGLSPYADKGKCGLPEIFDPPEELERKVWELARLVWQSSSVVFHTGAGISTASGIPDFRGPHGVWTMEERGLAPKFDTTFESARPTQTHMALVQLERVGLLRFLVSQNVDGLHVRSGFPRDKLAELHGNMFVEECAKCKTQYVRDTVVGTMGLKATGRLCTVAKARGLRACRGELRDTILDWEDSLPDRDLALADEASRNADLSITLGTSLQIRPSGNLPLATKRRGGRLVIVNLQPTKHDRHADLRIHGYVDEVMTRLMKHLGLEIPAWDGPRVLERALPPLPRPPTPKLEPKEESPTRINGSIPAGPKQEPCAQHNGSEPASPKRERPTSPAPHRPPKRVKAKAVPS", "experiment": "EMSA"}, "SIRT6(1-300)": {"molecular_target": "SIRT6(1-300) (human, UniProt Q8N6T7 1-300)", "sequence (Q8N6T7 1-300)": "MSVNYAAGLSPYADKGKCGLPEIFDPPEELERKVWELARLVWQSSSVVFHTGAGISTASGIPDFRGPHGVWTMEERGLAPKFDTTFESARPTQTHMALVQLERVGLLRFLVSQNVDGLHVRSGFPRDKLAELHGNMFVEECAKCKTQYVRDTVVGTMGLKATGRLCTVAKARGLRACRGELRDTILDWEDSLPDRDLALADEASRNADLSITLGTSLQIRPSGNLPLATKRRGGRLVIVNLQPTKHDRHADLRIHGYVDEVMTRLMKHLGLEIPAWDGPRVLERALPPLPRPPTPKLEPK", "experiment": "EMSA"}}, "data": [{"binder": "B1", "values": [{"measurement": "Kd", "setting": "[1]", "result": "1.93 ± 0.1", "unit": "µM"}, {"measurement": "Kd", "setting": "SIRT6(1-300)", "result": "9.68 ± 0.39", "unit": "µM"}]}]}
